Positions count from the first letter of the chain named.
B1: chimeric rabbit/human Fab XBR2-327 (Fab, V domains shown)
VH: QEQLKESGGGLFKPTDTLTLTCTVSGFSLSSGAISWVRQAPGNGLEYIGFVNSLGNTYYANWAKSRSAITRNTNENTVTLKMTSLAAADTATYFCAKDYGNWAFDPWGPGTLVTVSS
VL: DPVLTQTPSSVSAAVGGTVAINCQASQSISSYLSWYQQKPGQPPKLLIYGASKLASGVPSRFSGSGSGTEYTLTISGVQREDAATYYCLGGYASASYRTAFGGGTKLEIK
B2: chimeric rabbit/human Fab ERR2-317 (Fab, V domains shown)
VH: QSLEESGGRLVTPGTPLTLTCTASGFSLSSYDMIWVRQAPGKGLEYIGIINAGGNTYYASWAKGRFTISRTSTTVDLKMTSPTTEDTATYFCARGSSWTGDIWGPGTLVTVSS
VL: B1 VL with V11T, A20T, N22K, L46Q, G50A, K53T, S63K, R98Q, L107V
B3: chimeric rabbit/human Fab ERR2-308 (Fab, V domains shown)
VH: QEQLEESGGRLVTPGTPLTLTCAVSGFSLSNYAMGWVRQAPGEGLEYIGWISAGGGAYYASWVNGRFTISKTSSTVDLKMTSLTAADTATYFCARGASNGCDLWGPGTLVTVSS
VL: DPMLTQTPSSVSAVVGGTVTIKCQASQSITSWLSWYQQKPGQPPKLLIYGASHLASGVPSRFKGSGYGTEFTLTISGIQREDAATYYCLGGYSNSDIVFGGGTELEIL
B4: chimeric rabbit/human Fab ERR2-316 (Fab, V domains shown)
VH: QKQLVESGGRLVTPGGSLTLTCTVSGFSLSKYGVSWVRQAPGSGLEYIGTIGGSGTSYYASWAKSRSTITRNTNLNTVTLKMTSLTAADTATYFCARYFGWNTGFDIWGPGTLVTISS
VL: DPVMTQTPSSVSEPVGGTVTIKCQASQSISNALAWYQQKPGQPPKRLIYKASTPASGVPSRFKGSRSGTEYTLTISGVQREDAATYYCLGFSVVSNDGWAFGAGTNVEIK
B5: chimeric rabbit/human Fab XBR2-416 (Fab, V domains shown)
VH: QEQLEESGGRLVTPGTPLTLTCTVSGFSLSSYWMSWVRQAPGKGLEWIGTITPGGNTDYATWAKARFTVSKTSTTVDLKITSPTTEDTATYFCARGIGGAADLWGPGTLVTISS
VL: AQVLTQTPSSTSAAVGGTVTIKCQASQSISSSDLSWYQQKPGQPPKLLIYATSYLASGVPSRFKGSGSGTEYTLTISGVQREDAATYYCLGGYPNTSYRSAFGGGTKVEIK
B6: chimeric rabbit/human Fab XBR2-TOP9 (Fab, V domains shown)
VH: QSVEESRGRLVTPGTPLTLICTVSGIDLSSYNIQWVRQAPGKGLEYIGYINTDGSAYYASWAKGRFTISKTSTTVDLKITSPTTEDTATYFCARGGYASGFNLWGPGTLVTISS
VL: DVVMTQTPSSTSAAVGGTVTIKCQASQNIGPWLSWYQQKPGQPPKQLIYAASTLASGVPSRFKGSGSGTDYTLTISGVQREDAATYYCLGWHSWSDDGWAFGAGTNVEIK
B7: chimeric rabbit/human Fab XBR2-433 (Fab, V domains shown)
VH: QSVKESEGGLFKPTDTLTLTCTVSGFSLSTYGVSWVRQAPGNGLEWIGAIGSSGSANYASWAKDRSTITRNTNLNTVTLKMTSLTAADTATYFCARDGYYSSGWGPYFNIWGPGTLVTISS
VL: SFVLTQPASVQVNLGQTVSLTCTADTLSRSYASWYQQKPGQAPVLLIYRDTSRPSGVPDRFSGSSSGNTATLTISGAQAGDEADYYCATSGGSGSNPQYVFGGGTQLTVTG
B8: chimeric rabbit/human Fab ERR2-TOP35 (Fab, V domains shown)
VH: B7 VH with T14M, S29N, I50V, S55A, A56T, D64S, L74E, N109S, I119V
VL: SFVLTQPASVQVNLGQTVSLTCTAETLRSSYASWYQQKPGQAPVLLIYRDTSRPSGVPDRFSGSSSGNTATLTISGAQAGDEADYYCATSDGSGSRYYVFGGGTQLTVTG
B9: chimeric rabbit/human Fab ERR2-TOP2 (Fab, V domains shown)
VH: QSLEESGGRLVTPGTPLTLTCTVSGFSLSSYAISWVRQAPGKGLEWIGTIGTRGDTAYANWAKGRFTISKTSTTVTLKMTSPTTEDTATYFCARELVAGGGSDLWGPGTLVTVSS
VL: DVVMTQTPSSVSAVVGGTVTIKCQASQSITSWLSWYQQKPGQPPKLLIYGASHLASGVPSRFKGSGYGTEFTLTISGIQREDAATYYCLGGYLSASYQTAFGGGTKVEIK
B10: chimeric rabbit/human Fab ERR2-302 (Fab, V domains shown)
VH: QKQLVESGGGLVKPGGSLTLTCTVSGFSLSSYAIGWVRQAPGNGLEWIGIINSYGSTYYASWAKSRSTITRNTNLNTVTLKMTSLTAADTATYFCARSPYGYVSAWGYHRLDLWGQGTLVTISS
VL: SYELTQLPSVSVSLGQTARITCGGASIGSKVVHWYQQKPGLAPGLLIYDDDERPSGVPDRFSGSNSGDTATLTISGAQAGDEAEYYCQLWDGSDVVFGGGTQLTVTG
B11: chimeric rabbit/human Fab XBR2-TOP72 (Fab, V domains shown)
VH: QEQLEESGGRLVTPGTPLTLTCTVSGIDLSSNAMSWVRQAPGKGLEYVGFINGGGGVHYASWARGRFTISKTSTTVDLKITSPTTEDTATYFCARAGTTYYTSFNLWGPGTLVTISS
VL: QFVLTQSPSASAALGSSAKLTCTLSSAHKTYTIAWYQQQQGEAPRLLMMLRTDGSYTKGTGVPDRFSGSSSGADRYLIISSVQADDAAGYYCGADYSGGYVFGGGTQLTVTG

What follows are binders tested against hFc-hROR2-T245 (recombinant human ROR2 extracellular domain fused to human Fc) (human) (UniProt Q01974) (assay: SPR (Biacore X100), hFc-hROR2 captured by anti-human Fc on CM5, Fab as analyte, 1:1 Langmuir model).
Chain of hFc-hROR2-T245 (recombinant human ROR2 extracellular domain fused to human Fc) (human) (Q01974 55-394 limits assumed, form in doubt): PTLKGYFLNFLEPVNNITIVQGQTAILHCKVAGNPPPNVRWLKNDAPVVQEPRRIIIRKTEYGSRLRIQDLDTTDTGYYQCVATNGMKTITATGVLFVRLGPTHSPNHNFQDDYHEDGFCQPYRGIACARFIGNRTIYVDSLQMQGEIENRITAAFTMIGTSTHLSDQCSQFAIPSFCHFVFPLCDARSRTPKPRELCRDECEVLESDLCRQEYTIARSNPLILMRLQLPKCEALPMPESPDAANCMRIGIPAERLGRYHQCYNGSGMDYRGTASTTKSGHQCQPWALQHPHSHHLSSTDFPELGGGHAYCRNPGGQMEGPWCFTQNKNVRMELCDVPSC

In order of rising Kd:
1. B8  43.3 nM
2. B10  52.5 nM
3. B1  57.2 nM
4. B7  2280 nM
5. B11  4150 nM

In order of rising koff:
1. B3  0.000286 s⁻¹
2. B9  0.00242 s⁻¹
3. B10  0.00544 s⁻¹
4. B1  0.00546 s⁻¹
5. B8  0.00851 s⁻¹
6. B2  0.0132 s⁻¹
7. B5  0.0173 s⁻¹
8. B4  0.0178 s⁻¹
9. B6  0.0467 s⁻¹
10. B7  0.108 s⁻¹
11. B11  0.154 s⁻¹

In order of rising kon:
1. B3  27100 M⁻¹ s⁻¹
2. B9  29800 M⁻¹ s⁻¹
3. B11  37000 M⁻¹ s⁻¹
4. B7  47300 M⁻¹ s⁻¹
5. B5  49800 M⁻¹ s⁻¹
6. B2  83500 M⁻¹ s⁻¹
7. B1  95600 M⁻¹ s⁻¹
8. B10  104000 M⁻¹ s⁻¹
9. B8  197000 M⁻¹ s⁻¹
10. B6  328000 M⁻¹ s⁻¹
11. B4  3.34e+06 M⁻¹ s⁻¹
